From US20260158160A1 (MACFARLANE BURNET INSTITUTE FOR MEDICAL RESEARCH AND PUBLIC …, published 2026)

Molecular target: T1, SARS-CoV-2 spike protein expressed on Ramos-S cells (SARS-CoV-2, UniProt P0DTC2 14-1273)
T1 construct: whole, on cells; also called S protein; Ramos cells expressing transfected spike protein
Test: flow cytometry on Ramos-S cells

B1: CC40.8-H429F (antibody)
heavy: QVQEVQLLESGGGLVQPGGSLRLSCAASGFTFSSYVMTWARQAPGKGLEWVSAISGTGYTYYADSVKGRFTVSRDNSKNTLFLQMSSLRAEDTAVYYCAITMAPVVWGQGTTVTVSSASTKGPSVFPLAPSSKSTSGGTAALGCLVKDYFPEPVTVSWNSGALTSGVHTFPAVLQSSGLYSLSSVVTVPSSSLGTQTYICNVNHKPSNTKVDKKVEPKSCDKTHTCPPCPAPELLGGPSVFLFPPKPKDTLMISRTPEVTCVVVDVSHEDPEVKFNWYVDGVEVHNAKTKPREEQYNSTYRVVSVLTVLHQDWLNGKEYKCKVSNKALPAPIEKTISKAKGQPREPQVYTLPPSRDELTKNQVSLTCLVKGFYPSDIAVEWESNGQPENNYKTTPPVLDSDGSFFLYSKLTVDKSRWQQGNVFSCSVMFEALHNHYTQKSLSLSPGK
light: SYELTQPPSVSVSPGQTARITCSGDALPKRYAYWYQQKSGQAPILVIYEDKKRPSGIPERLSGSKSGTVATLTISGAQVEDEADYYCYSTDSSGNHAVFGGGTQLTVLGQPKAAPSVFIFPPSDEQLKSGTASVVCLLNNFYPREAKVQWKVDNALQSGNSQESVTEQDSKDSTYSLSSTLTLSKADYEKHKVYACEVTHQGLSSPVTKSFNRGEC
notes: also called CC40.8-HF
  binding result: binds
